Assay results published in US20180371086A1 (Gilead, published 2018).
Numbering of substitutions follows the chain as printed.

Legend:
[1] = molecular target: HIV-1 Env of subtype B isolate 93HT593 (HIV-1); experiment: cell-based or functional assay
[2] = molecular target: HIV-1 Env of subtype B isolate 92US727 (HIV-1); experiment: cell-based or functional assay
[3] = molecular target: HIV-1 Env of subtype B isolate 92US657 (HIV-1); experiment: cell-based or functional assay
[4] = molecular target: HIV-1 Env of the lab adapted HIV-1 BaL strain (HIV-1); experiment: cell-based or functional assay
[5] = molecular target: HIV-1 Env of subtype B isolate 92US712 (HIV-1); experiment: cell-based or functional assay
Human FcRn [6] = molecular target: T1, Human FcRn (human, UniProt P55899 24-297; P61769 21-119); experiment: ELISA, FcRn coated on plate, pH 7.0
T1 construct: also called neonatal Fc receptor
T1 sequence (P55899 24-297 limits assumed, chain 1 of 2): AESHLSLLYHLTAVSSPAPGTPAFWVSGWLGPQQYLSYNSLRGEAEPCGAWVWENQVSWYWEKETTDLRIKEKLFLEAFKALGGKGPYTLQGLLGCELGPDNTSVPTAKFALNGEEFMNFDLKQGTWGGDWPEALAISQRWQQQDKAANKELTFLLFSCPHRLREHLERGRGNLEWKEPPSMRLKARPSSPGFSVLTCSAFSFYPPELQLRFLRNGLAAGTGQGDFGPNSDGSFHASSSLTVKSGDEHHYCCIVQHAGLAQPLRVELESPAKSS
T1 sequence (P61769 21-119 limits assumed, chain 2 of 2): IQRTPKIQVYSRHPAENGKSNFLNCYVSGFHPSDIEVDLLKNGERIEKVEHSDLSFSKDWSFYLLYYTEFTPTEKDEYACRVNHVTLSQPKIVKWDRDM
Protocol: (§1) The binding of antibodies to FcRn of various antibody variants at different pHs was determined. A 96-well Maxisorp plate was coated with 100 ul of 5 μg/ml FcRn. The plate was incubated overnight at 4° C., and then blocked with 4% skim milk for 2 hr at room temperature after washing 3 times with 0.05% Tween 20 washing buffer. […] The plate was then washed 3 times and 100 μL of Fab-anti-human Fab-HRP or Goat anti-human IgG-HRP secondary antibody diluted in 4% skimmed milk was added. Plates were then incubated 50 min at room temperature, washed three times, and 100 μL fresh TMB substrate was added. Plates were developed for 3 minutes on bench with gentle shaking. Plate was quenched with 100 μL 1M HCl, shaken briefly, read at A450 on a spectramax m5 plate reader.

Human FcRn [7] = molecular target: T1, Human FcRn; experiment: ELISA, FcRn coated on plate, pH 6.0
Protocol: as §1

Human FcRn [8] = molecular target: T1, Human FcRn; experiment: ELISA, FcRn coated on plate; pH 7.0/6.0 ratio against that of PGT121
Protocol: as §1

Human FcRn [9] = molecular target: T1, Human FcRn; experiment: ELISA, FcRn coated on plate; ratio of EC50 at pH 7.0 to pH 6.0
Protocol: as §1

[10] = molecular target: HIV-1 Env of subtype B isolate MGRM-B-136 (HIV-1); experiment: cell-based or functional assay
[11] = molecular target: HIV-1 Env of subtype B isolate MGRM-B-111 (HIV-1); experiment: cell-based or functional assay
[12] = molecular target: HIV-1 Env of subtype B isolate MGRM-B-132 (HIV-1); experiment: cell-based or functional assay
[13] = molecular target: HIV-1 Env of subtype B isolate MGRM-B-112 (HIV-1); experiment: cell-based or functional assay
[14] = molecular target: HIV-1 Env of subtype B isolate MGRM-B-110 (HIV-1); experiment: cell-based or functional assay
[15] = molecular target: HIV-1 Env of subtype B isolate MGRM-B-106 (HIV-1); experiment: cell-based or functional assay
[16] = molecular target: HIV-1 Env of subtype B isolate MGRM-B-118 (HIV-1); experiment: cell-based or functional assay
[17] = molecular target: HIV-1 Env of subtype B isolate MGRM-B-115 (HIV-1); experiment: cell-based or functional assay
[18] = molecular target: HIV-1 Env of subtype B isolate MGRM-B-105 (HIV-1); experiment: cell-based or functional assay
[19] = molecular target: HIV-1 Env of subtype B virus 15-124918 (HIV-1); experiment: cell-based or functional assay
[20] = molecular target: HIV-1 Env of subtype B virus 15-124987 (HIV-1); experiment: cell-based or functional assay
[21] = molecular target: HIV-1 Env of subtype B virus 15-124986 (HIV-1); experiment: cell-based or functional assay
[22] = molecular target: HIV-1 Env of subtype B virus 15-124950 (HIV-1); experiment: cell-based or functional assay
[23] = molecular target: HIV-1 Env of subtype B virus 15-124904 (HIV-1); experiment: cell-based or functional assay
[24] = molecular target: HIV-1 Env of subtype B virus 15-124964 (HIV-1); experiment: cell-based or functional assay
[25] = molecular target: HIV-1 Env of subtype B virus 15-124963 (HIV-1); experiment: cell-based or functional assay
[26] = molecular target: HIV-1 Env of subtype B virus 15-124975 (HIV-1); experiment: cell-based or functional assay
[27] = molecular target: HIV-1 Env of subtype B virus 15-124906 (HIV-1); experiment: cell-based or functional assay
[28] = molecular target: HIV-1 Env of subtype B virus 15-101757 (HIV-1); experiment: cell-based or functional assay
[29] = molecular target: HIV-1 Env of subtype B virus 15-124914 (HIV-1); experiment: cell-based or functional assay
[30] = molecular target: HIV-1 Env of subtype B virus 15-124962 (HIV-1); experiment: cell-based or functional assay
[31] = molecular target: HIV-1 Env of subtype B virus 15-102514 (HIV-1); experiment: cell-based or functional assay
[32] = molecular target: HIV-1 Env of subtype B virus 15-101608 (HIV-1); experiment: cell-based or functional assay
[33] = molecular target: HIV-1 Env of subtype B virus 15-124934 (HIV-1); experiment: cell-based or functional assay
[34] = molecular target: HIV-1 Env of subtype B virus 15-124970 (HIV-1); experiment: cell-based or functional assay
[35] = molecular target: gp120 (HT593) expressed on human embryonic kidney (HEK) cells (HIV-1); experiment: cell-based or functional assay
[36] = molecular target: T2, HIV-1 Env gp120 of virus WITO, on infected cells (HIV-1); experiment: cell-based or functional assay
[37] = molecular target: HIV-1 Env gp120 of virus CH058, on infected cells (HIV-1); experiment: cell-based or functional assay
[38] = molecular target: HIV-1 Env gp120 of virus 92US727, on infected cells (HIV-1); experiment: cell-based or functional assay
[39] = molecular target: HIV-1 Env gp120 of virus 1489, on infected cells (HIV-1); experiment: cell-based or functional assay
[40] = molecular target: HIV-1 Env gp120 of virus 7552, on infected cells (HIV-1); experiment: cell-based or functional assay
[41] = molecular target: T2, HIV-1 Env gp120 of virus WITO, on …; experiment: cell-based or functional assay; remark: listed apart in the source
[42] = molecular target: HIV-1 Env gp120 of virus 7015, on infected cells (HIV-1); experiment: cell-based or functional assay

B1: PGT121.56 (antibody, human IgG1, lambda)
heavy: QMQLQESGPGLVKPSETLSLTCSVSGASISDSYWSWIRRSPGKGLEWIGYVHKSGDTNYSPSLKSRVNLSLDTSKNQVSLSLVAATAADSGKYYCARTLHGRRIYGIVAFNEWFTYFYMDVWGNGTQVTVSSASTKGPSVFPLAPSSKSTSGGTAALGCLVKDYFPEPVTVSWNSGALTSGVHTFPAVLQSSGLYSLSSVVTVPSSSLGTQTYICNVNHKPSNTKVDKKVEPKSCDKTHTCPPCPAPELLAGPDVFLFPPKPKDTLMISRTPEVTCVVVDVSHEDPEVKFNWYVDGVEVHNAKTKPREEQYNSTYRVVSVLTVLHQDWLNGKEYKCKVSNKALPLPEEKTISKAKGQPREPQVYTLPPSREEMTKNQVSLTCLVKGFYPSDIAVEWESNGQPENNYKTTPPVLDSDGSFFLYSKLTVDKSRWQQGNVFSCSVLHEALHSHYTQKSLSLSPGK
light: not shown
- Neutralization potency, IC50 [1]: 0.164 µg/mL
- Neutralization potency, IC50 [2]: 0.011 µg/mL
- Neutralization potency, IC50 [3]: 0.142 µg/mL
- Neutralization potency, IC50 [4]: 0.02 µg/mL
- Neutralization potency, IC50 [5]: 0.019 µg/mL

B2: PGT121.56 (antibody, human IgG1, lambda)
heavy: B1 heavy
light: not shown
- EC50 (Human FcRn [6]): 102 nM
- EC50 (Human FcRn [7]): 0.47 nM
- Fold vs PGT121 (Human FcRn [8]): 7 fold
- Ratio pH 7.0/6.0 (Human FcRn [9]): 217

B3: PGT121.60 hIgG1/hLambda (antibody, V domains shown)
VH: QMQLQESGPGLVKPSETLSLTCSVSGASISDSYWSWIRRSPGKGLEWIGYVHKSGDTNYNPSLKSRVHLSLDTSKNQVSLSLTGVTAADSGKYYCARTLHGRRIYGIVAFNEWFTYFYMDVWGTGTQVTVSS
VL: SDISVAPGETARISCGEKSLGSRAVQWYQHRAGQAPSLIIYNNQDRPSGIPERFSGSPDSRPGTTATLTITSVEAGDEADYYCHIWDSRVPTKWVFGGGTTLTVLG
- Neutralization activity, IC50 [10]: 0.0071 µg/mL
- Neutralization activity, IC50 [11]: 0.955 µg/mL
- Neutralization activity, IC50 [12]: 0.0077 µg/mL
- Neutralization activity, IC50 [13]: 0.0058 µg/mL
- Neutralization activity, IC50 [14]: 0.0113 µg/mL
- Neutralization activity, IC50 [15]: 0.001 µg/mL
- Neutralization activity, IC50 [16]: 3.31 µg/mL
- Neutralization activity, IC50 [17]: 0.141 µg/mL
- Neutralization activity, IC50 [18]: 0.0076 µg/mL
- Neutralization potency, IC50 [19]: 0.0018 µg/mL
- Neutralization potency, IC50 [20]: 0.0163 µg/mL
- Neutralization potency, IC50 [21]: 0.0015 µg/mL
- Neutralization potency, IC50 [22]: 0.0995 µg/mL
- Neutralization potency, IC50 [23]: 0.0121 µg/mL
- Neutralization potency, IC50 [24]: 0.0026 µg/mL
- Neutralization potency, IC50 [25]: 2.05 µg/mL
- Neutralization potency, IC50 [26]: 0.105 µg/mL
- Neutralization potency, IC50 [27]: 0.0103 µg/mL
- Neutralization potency, IC50 [28]: 0.0132 µg/mL
- Neutralization potency, IC50 [29]: 0.002 µg/mL
- Neutralization potency, IC50 [30]: 0.0277 µg/mL
- Neutralization potency, IC50 [31]: 0.0128 µg/mL
- Neutralization potency, IC50 [32]: 1.84 µg/mL
- Neutralization potency, IC50 [33]: 0.797 µg/mL
- Neutralization potency, IC50 [34]: 0.0285 µg/mL
- Neutralization potency, IC50 [1]: 0.141 µg/mL
- Neutralization potency, IC50 [2]: 0.007 µg/mL
- Neutralization potency, IC50 [3]: 0.062 µg/mL
- Neutralization potency, IC50 [4]: 0.007 µg/mL
- Neutralization potency, IC50 [5]: 0.008 µg/mL

B4: Variant 2 (DS -> DF) (antibody, human IgG1, lambda, V domains shown)
VH: B3 VH
VL: B3 VL with S60F
- % ADCC Activity (ADCC reporter cell based assay; sample stressed at 25° C. for 4 weeks, relative to its untreated control) [35]: 96%

B5: Variant 3 (DS->DT) (antibody, human IgG1, lambda, V domains shown)
VH: B3 VH
VL: B3 VL with S60T
- % ADCC Activity (ADCC reporter cell based assay; sample stressed at 25° C. for 4 weeks, relative to its untreated control) [35]: 104%

B6: Variant 1 (DS -> DY) (antibody, human IgG1, lambda, V domains shown)
VH: B3 VH
VL: B3 VL with S60Y
- % ADCC Activity (ADCC reporter cell based assay; sample stressed at 25° C. for 4 weeks, relative to its untreated control) [35]: 100%

B7: Variant 4 (DS->GS) (antibody, human IgG1, lambda, V domains shown)
VH: B3 VH
VL: B3 VL with D59G
- % ADCC Activity (ADCC reporter cell based assay; sample stressed at 25° C. for 4 weeks, relative to its untreated control) [35]: 95%

B8: Exemplary gp120×CD3 Duobody® (bispecific antibody, human IgG1, lambda)
heavy 1: QMQLQESGPGLVKPSETLSLTCSVSGASISDSYWSWIRRSPGKGLEWIGYVHKSGDTNYNPSLKSRVHLSLDTSKNQVSLSLTGVTAADSGKYYCARTLHGRRIYGIVAFNEWFTYFYMDVWGTGTQVTVSSASTKGPSVFPLAPSSKSTSGGTAALGCLVKDYFPEPVTVSWNSGALTSGVHTFPAVLQSSGLYSLSSVVTVPSSSLGTQTYICNVNHKPSNTKVDKRVEPKSCDKTHTCPPCPAPEFEGGPSVFLFPPKPKDTLMISRTPEVTCVVVAVSHEDPEVKFNWYVDGVEVHNAKTKPREEQYNSTYRVVSVLTVLHQDWLNGKEYKCKVSNKALPAPIEKTISKAKGQPREPQVYTLPPSREEMTKNQVSLTCLVKGFYPSDIAVEWESNGQPENNYKTTPPVLDSDGSFFLYSRLTVDKSRWQQGNVFSCSVMHEALHNHYTQKSLSLSPGK
light 1: not shown
heavy 2: not shown
light 2: not shown
- killing EC50; HIV-infected CD4 T cells (WITO); effector cells Eff Memory CD4 [36]: 0.02 µg/mL
- killing EC50; HIV-infected CD4 T cells (WITO); effector cells Memory CD4 [36]: 0.02 µg/mL
- killing EC50; HIV-infected CD4 T cells (WITO); effector cells Memory CD8 [36]: 0.02 µg/mL
- killing EC50; HIV-infected CD4 T cells (WITO); effector cells Naïve CD4 [36]: 0.03 µg/mL
- killing EC50; HIV-infected CD4 T cells (WITO); effector cells γ Δ CD4 [36]: 0.09 µg/mL
- Potency (IC50) of killing HIV-infected cells; PBMC-derived effector cells; donor 1003277; virus CHO58 [37]: 0.002 µg/mL
- Potency (IC50) of killing HIV-infected cells; PBMC-derived effector cells; donor 1004344; virus CHO58 [37]: 0.001 µg/mL
- Potency (IC50) of killing HIV-infected cells; tonsil-derived effector cells; donor 1003277; virus CHO58 [37]: 0.024 µg/mL
- Potency (IC50) of killing HIV-infected cells; tonsil-derived effector cells; donor 1004344; virus CHO58 [37]: 0.031 µg/mL
- Potency (IC50) of killing HIV-infected cells; PBMC-derived effector cells; donor 1004344; virus 92US727 [38]: 0.012 µg/mL
- Potency (IC50) of killing HIV-infected cells; tonsil-derived effector cells; donor 1004344; virus 92US727 [38]: 0.051 µg/mL
- killing EC50; HIV-infected CEM-NKr-CCR5-LucR CD4 T cells; PBMC donor 4176; virus 1489 [39]: 0.028 µg/mL
- killing EC50; HIV-infected CEM-NKr-CCR5-LucR CD4 T cells; PBMC donor 4288; virus 1489 [39]: 0.005 µg/mL
- killing EC50; HIV-infected CEM-NKr-CCR5-LucR CD4 T cells; PBMC donor 4176; virus 7552 [40]: 0.038 µg/mL
- killing EC50; HIV-infected CEM-NKr-CCR5-LucR CD4 T cells; PBMC donor 4288; virus 7552 [40]: 0.003 µg/mL
- killing EC50; HIV-infected CEM-NKr-CCR5-LucR CD4 T cells; PBMC donor 4176; virus WITO [41]: 0.248 µg/mL
- killing EC50; HIV-infected CEM-NKr-CCR5-LucR CD4 T cells; PBMC donor 4288; virus WITO [41]: 0.046 µg/mL
- killing EC50; HIV-infected CEM-NKr-CCR5-LucR CD4 T cells; PBMC donor 4176; virus 7015 [42]: 1.04 µg/mL
- killing EC50; HIV-infected CEM-NKr-CCR5-LucR CD4 T cells; PBMC donor 4288; virus 7015 [42]: 0.446 µg/mL
